Experimental data from paper PMC2904831 (Journal of molecular biology, 2010).
Like-named read-outs stand apart in the source and are kept apart here. Where no end group is shown, it is not given here. [ ]: non-standard residue; d: D form. pS = N[C@@H](COP(=O)(O)O)C(=O)O

How the values were obtained:
[1] = tested on: pMART-1-specific CD4+ T cell line D7; assay: Recognition of titrated peptides on HLA-DR1+ APC by CD4+ T cell line D7; assay type: cell-based, human; conditions: T cell line D7, peptide 25 μM, ELISA; Fig. 4b
[2] = tested on: pMART-1-specific CD4+ T cell clone D7-F6; assay: Recognition of peptide-pulsed HLA-DR1+ EBV-B cells by CD4+ T cell clone D7-F6; assay type: cell-based, human; conditions: ELISA
[3] = target: HLA-DR1 (HLA-DRβ1*0101) purified from the EBV-transformed homozygous B lymphoblastoid cell line LG2 (human); assay: radioligand binding
[4] = target: HLA-DR1 (HLA-DRβ1*0101) purified from the EBV-transformed homozygous B lymphoblastoid cell line LG2 (human); assay: radioligand binding; remark: listed apart in the source

Question: Which results are given for PKYVKQNTLKLAT [HA307-319]?
Answer: GM-CSF secretion from T cells + APC + peptide [1]: 0.7 ng/mL; GM-CSF secretion from T cells + APC + peptide ([2]; clone D7-F6, HLA-DR1+ 2048-EBV cells pre-pulsed with peptide 25 μM, overnight, Fig. 3): < 15 pg/mL; GM-CSF secretion from T cells + APC + peptide ([2]; clone D7-F6, peptide 15 μM, Fig. 4a): < 20 pg/mL

Question: “pMART-1_(98–109) phosphopeptide (from UniProt Q16655 98-109)” was tested. Which fold decrease in other [3] did it give?
Answer: The fold decrease in other was under 2 fold.

Question: “pMART-1_(100–116) phosphopeptide (from UniProt Q16655 100-116)” was tested. Which IC50 [3] did it give?
Answer: The IC50 was 0.327 µM.

Question: How did the IC50 [4] turn out when APPAYEKL[pS]AEQ [pMART-1_(100–111) phosphopeptide] was run?
Answer: The IC50 was 0.459 µM.

Question: Which IC50 [4] does the source give for APPAYEKL[pS]AEQSPPP [pMART-1_(100–115) phosphopeptide] here?
Answer: Its IC50 is 0.142 µM.

Question: How did the IC50 [4] turn out when APPAYEKL[pS]AEQSPP [pMART-1_(100–114) phosphopeptide] was run?
Answer: Its IC50 is 0.102 µM.
